According to patent publication US20140363428A1 (Chugai, published 2014):

The binders below were run against T1, soluble human FcRn (human, UniProt P55899 24-297; P61769 21-119) (assay: SPR (Biacore T100), antibody captured by protein L, hFcRn as analyte, pH 7.0, 25 C;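 further: KD calculated from fitted association and dissociation rate constants of the sensorgrams, protein L amine-coupled to the sensor chip, sodium phosphate running buffer with NaCl and Tween20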).
T1 construct: Heterodimer of FcRn alpha chain and beta2-microglobulin; also called hFcRn
Description: An appropriate amount of protein L (ACTIGEN) was immobilized onto Sensor chip CM4 (GE Healthcare) by the amino coupling method, and the chip was allowed to capture an antibody of interest. Then, diluted FcRn solutions and running buffer (as a reference solution) were injected to allow human FcRn to interact with the antibody captured on the sensor chip. The running buffer used comprised 50 mmol/l sodium phosphate, 150 mmol/l NaCl, and 0.05% (w/v) Tween20 (pH 7.0). FcRn was diluted using each buffer. The chip was regenerated using 10 mmol/l glycine-HCl (pH 1.5). Assays were carried out exclusively at 25 degrees C. The association rate constant ka (1/Ms) and dissociation rate constant kd (1/s), both of which are kinetic parameters, were calculated based on the sensorgrams obtained in the assays, and KD (M) of each antibody for human FcRn was determined from these values. Each parameter was calculated using Biacore T100 Evaluation Software (GE Healthcare).

Binder	Kd [nM]
IgG1-F1262 (antibody, EU numbering; copies: 2 + 2) heavy: QVQLQESGPGLVKPSETLSLTCAVSGHSISHDHAWSWVRQPPGEGLEWIGFISYSGITNYNPSLQGRVTISRDNSKNTLYLQMNSLRAEDTAVYYCARSLARTTAMDYWGEGTLVTVSSASTKGPSVFPLAPSSKSTSGGTAALGCLVKDYFPEPVTVSWNSGALTSGVHTFPAVLQSSGLYSLSSVVTVPSSSLGTQTYICNVNHKPSNTKVDKKVEPKSCDKTHTCPPCPAPELRGGPKVFLFPPKPKDTLYISRTPEVTCVVVDVSHEDPEVKFNWYVDGVEVHNAKTKPREEQYNSTYRVVSVLTVLHQDWLNGKEYKCKVSNKALPAPIEKTISKAKGQPREPQVYTLPPSRDELTKNQVSLTCLVKGFYPSDIAVEWESNGQPENNYKTTPPVLDSDGSFFLYSKLTVDKSRWQQGNVFSCSVMHEALHYHVTKKELSLSP light: not shown	130
IgG1-F1183 (antibody, EU numbering; copies: 2 + 2) heavy: QVQLQESGPGLVKPSETLSLTCAVSGHSISHDHAWSWVRQPPGEGLEWIGFISYSGITNYNPSLQGRVTISRDNSKNTLYLQMNSLRAEDTAVYYCARSLARTTAMDYWGEGTLVTVSSASTKGPSVFPLAPSSKSTSGGTAALGCLVKDYFPEPVTVSWNSGALTSGVHTFPAVLQSSGLYSLSSVVTVPSSSLGTQTYICNVNHKPSNTKVDKKVEPKSCDKTHTCPPCPAPELLGGPSVFLFPPKPKDTLMISRTPEVTCVVVDVSHEDPEVKFNWYVDGVEVHNAKTKPREEQYNSTYRVVSVLTVLHQDWLNGKEYKCKVSNKALPAPIEKTISKAKGQPREPQVYTLPPSRDELTKNQVSLTCLVKGFYPSDIAVAWESNGQPENNYKTTPPVLDSDGSFFLYSKLTVDKSRWQQGNVFSCSVLHEALHSHYTQKSLSLSP light: not shown	1300
IgG1-F1178 (antibody, EU numbering; copies: 2 + 2) heavy: QVQLQESGPGLVKPSETLSLTCAVSGHSISHDHAWSWVRQPPGEGLEWIGFISYSGITNYNPSLQGRVTISRDNSKNTLYLQMNSLRAEDTAVYYCARSLARTTAMDYWGEGTLVTVSSASTKGPSVFPLAPSSKSTSGGTAALGCLVKDYFPEPVTVSWNSGALTSGVHTFPAVLQSSGLYSLSSVVTVPSSSLGTQTYICNVNHKPSNTKVDKKVEPKSCDKTHTCPPCPAPELLGGPSVFLFPPKPKDTLMISRTPEITCVVVDVSHEDPEVKFNWYVDGVEVHNAKTKPREEQYNSTYRVVSVLTFLHQDWLNGKEYKCKVSNKALPAPIEKTISKAKGQPREPQVYTLPPSRDELTKNQVSLTCLVKGFYPSDIAVEWESNGQPENNYKTTPPVLDSDGSFFLYSKLTVDKSRWQQGNVFSCSVLHEALHNHYTQKSLSLSP light: not shown	870
IgG1-F1188 (antibody, EU numbering; copies: 2 + 2) heavy: QVQLQESGPGLVKPSETLSLTCAVSGHSISHDHAWSWVRQPPGEGLEWIGFISYSGITNYNPSLQGRVTISRDNSKNTLYLQMNSLRAEDTAVYYCARSLARTTAMDYWGEGTLVTVSSASTKGPSVFPLAPSSKSTSGGTAALGCLVKDYFPEPVTVSWNSGALTSGVHTFPAVLQSSGLYSLSSVVTVPSSSLGTQTYICNVNHKPSNTKVDKKVEPKSCDKTHTCPPCPAPELLGGPSVFLFPPKPKDTLMISRTPEVTCVVVDVSHEDPEVKFNWYVDGVEVHNAKTKPREEQYNSTYRVVSVLAVLHQDWLNGKEYKCKVSNKALPAPIEKTISKAKGQPREPQVYTLPPSRDELTKNQVSLTCLVKGFYPSDIAVAWESNGQPENNYKTTPPVLDSDGSFFLYSKLTVDKSRWQQGNVFSCSVMHEALHHHYTQKSLSLSP light: not shown	1700
IgG1-F1161 (antibody, EU numbering; copies: 2 + 2) heavy: QVQLQESGPGLVKPSETLSLTCAVSGHSISHDHAWSWVRQPPGEGLEWIGFISYSGITNYNPSLQGRVTISRDNSKNTLYLQMNSLRAEDTAVYYCARSLARTTAMDYWGEGTLVTVSSASTKGPSVFPLAPSSKSTSGGTAALGCLVKDYFPEPVTVSWNSGALTSGVHTFPAVLQSSGLYSLSSVVTVPSSSLGTQTYICNVNHKPSNTKVDKKVEPKSCDKTHTCPPCPAPELLGGPSVFLFPPKPKDTLMISRTPEVTCVVVDVSHEDPEVKFNWYVDGVEVHNAKTKPREEQYNSTYRVVSVLTVLHQDWLNGKEYKCKVSNKALPAPVEKTISKAKGQPREPQVYTLPPSRDELTKNQVSLTCLVKGFYPSDIAVEWESNGQPENNYKTTPPVLDSDGSFFLYSKLTVDKSRWQQGNVFNCSVMHEALHYHYTQKSLSLSP light: not shown	1100
IgG1-F1185 (antibody, EU numbering; copies: 2 + 2) heavy: QVQLQESGPGLVKPSETLSLTCAVSGHSISHDHAWSWVRQPPGEGLEWIGFISYSGITNYNPSLQGRVTISRDNSKNTLYLQMNSLRAEDTAVYYCARSLARTTAMDYWGEGTLVTVSSASTKGPSVFPLAPSSKSTSGGTAALGCLVKDYFPEPVTVSWNSGALTSGVHTFPAVLQSSGLYSLSSVVTVPSSSLGTQTYICNVNHKPSNTKVDKKVEPKSCDKTHTCPPCPAPELLGGPSVFLFPPKPKDTLMISRTPEVTCVVVDVSHEDPEVKFNWYVDGVEVHNAKTKPREEQYNSTYRVVSVLAVLHQDWLNGKEYKCKVSNKALPAPIEKTISKAKGQPREPQVYTLPPSRDELTKNQVSLTCLVKGFYPSDIAVAWESNGQPENNYKTTPPVLDSDGSFFLYSKLTVDKSRWQQGNVFSCSVLHEALHSHYTQKSLSLSP light: not shown	920
IgG1-F1162 (antibody, EU numbering; copies: 2 + 2) heavy: QVQLQESGPGLVKPSETLSLTCAVSGHSISHDHAWSWVRQPPGEGLEWIGFISYSGITNYNPSLQGRVTISRDNSKNTLYLQMNSLRAEDTAVYYCARSLARTTAMDYWGEGTLVTVSSASTKGPSVFPLAPSSKSTSGGTAALGCLVKDYFPEPVTVSWNSGALTSGVHTFPAVLQSSGLYSLSSVVTVPSSSLGTQTYICNVNHKPSNTKVDKKVEPKSCDKTHTCPPCPAPELLGGDSVFLFPPKPKDYLYISRTPEVTCVVVDVSHEDPEVKFNWYVDGVEVHNAKTKPREEQYNSTYRVVSVLTVLHQDWLNGKEYKCKVSNKALPAPIEKTISKAKGQPREPQVYTLPPSRDELTKNQVSLTCLVKGFYPSDIAVEWESNGQPENNYKTTPPVLDSDGSFFLYSKLTVDKSRWQQGNVFSCSVMHEALHYHVTQKSLSLSP light: not shown	340

Continued, values first:

Kd [nM]	Binder
16	IgG1-F1165 (antibody, EU numbering; copies: 2 + 2) heavy: QVQLQESGPGLVKPSETLSLTCAVSGHSISHDHAWSWVRQPPGEGLEWIGFISYSGITNYNPSLQGRVTISRDNSKNTLYLQMNSLRAEDTAVYYCARSLARTTAMDYWGEGTLVTVSSASTKGPSVFPLAPSSKSTSGGTAALGCLVKDYFPEPVTVSWNSGALTSGVHTFPAVLQSSGLYSLSSVVTVPSSSLGTQTYICNVNHKPSNTKVDKKVEPKSCDKTHTCPPCPAPELLGGDSVFLFPPKPKDYLYISRTPEVTCVVVDVSHEDPEVKFNWYVDGVEVHNAKTKPREEQYNSTYRVVSVLQPLHADWLNGKEYKCKVSNKALPAPIEKTISKAKGQPREPQVYTLPPSRDELTKNQVSLTCLVKGFYPSDIAVEWESNGQPENNYKTTPPVLDSDGSFFLYSKLTVDKSRWQQGNVFSCSVMHEALHYHVTQKSLSLSP light: not shown
150	IgG1-F1163 (antibody, EU numbering; copies: 2 + 2) heavy: QVQLQESGPGLVKPSETLSLTCAVSGHSISHDHAWSWVRQPPGEGLEWIGFISYSGITNYNPSLQGRVTISRDNSKNTLYLQMNSLRAEDTAVYYCARSLARTTAMDYWGEGTLVTVSSASTKGPSVFPLAPSSKSTSGGTAALGCLVKDYFPEPVTVSWNSGALTSGVHTFPAVLQSSGLYSLSSVVTVPSSSLGTQTYICNVNHKPSNTKVDKKVEPKSCDKTHTCPPCPAPELLGGDSVFLFPPKPKDYLYISRTPEVTCVVVDVSHEDPEVKFNWYVDGVEVHNAKTKPREEQYNSTYRVVSVLQVLHADWLNGKEYKCKVSNKALPAPIEKTISKAKGQPREPQVYTLPPSRDELTKNQVSLTCLVKGFYPSDIAVEWESNGQPENNYKTTPPVLDSDGSFFLYSKLTVDKSRWQQGNVFSCSVMHEALHYHYTQKSLSLSP light: not shown
70	IgG1-F1164 (antibody, EU numbering; copies: 2 + 2) heavy: QVQLQESGPGLVKPSETLSLTCAVSGHSISHDHAWSWVRQPPGEGLEWIGFISYSGITNYNPSLQGRVTISRDNSKNTLYLQMNSLRAEDTAVYYCARSLARTTAMDYWGEGTLVTVSSASTKGPSVFPLAPSSKSTSGGTAALGCLVKDYFPEPVTVSWNSGALTSGVHTFPAVLQSSGLYSLSSVVTVPSSSLGTQTYICNVNHKPSNTKVDKKVEPKSCDKTHTCPPCPAPELLGGDSVFLFPPKPKDYLYISRTPEVTCVVVDVSHEDPEVKFNWYVDGVEVHNAKTKPREEQYNSTYRVVSVLQVLHADWLNGKEYKCKVSNKALPAPIEKTISKAKGQPREPQVYTLPPSRDELTKNQVSLTCLVKGFYPSDIAVEWESNGQPENNYKTTPPVLDSDGSFFLYSKLTVDKSRWQQGNVFSCSVMHEALHYHVTQKSLSLSP light: not shown
160	IgG1-F1189 (antibody, EU numbering; copies: 2 + 2) heavy: QVQLQESGPGLVKPSETLSLTCAVSGHSISHDHAWSWVRQPPGEGLEWIGFISYSGITNYNPSLQGRVTISRDNSKNTLYLQMNSLRAEDTAVYYCARSLARTTAMDYWGEGTLVTVSSASTKGPSVFPLAPSSKSTSGGTAALGCLVKDYFPEPVTVSWNSGALTSGVHTFPAVLQSSGLYSLSSVVTVPSSSLGTQTYICNVNHKPSNTKVDKKVEPKSCDKTHTCPPCPAPELLGGPSVFLFPPKPKDTLYISRTPEVTCVVVDVSHEDPEVKFNWYVDGVEVHNAKTKPREEQYNSTYRVVSVLTVLHQDWLNGKEYKCKVSNKALPAPIEKTISKAKGQPREPQVYTLPPSRDELTKNQVSLTCLVKGFYPSDIAVEWESNGQPENNYKTTPPVLDSDGSFFLYSKLTVDKSRWQQGNVFSCSVMHEALDYHVTRKELSLSP light: not shown
290	IgG1-F1160 (antibody, EU numbering; copies: 2 + 2) heavy: QVQLQESGPGLVKPSETLSLTCAVSGHSISHDHAWSWVRQPPGEGLEWIGFISYSGITNYNPSLQGRVTISRDNSKNTLYLQMNSLRAEDTAVYYCARSLARTTAMDYWGEGTLVTVSSASTKGPSVFPLAPSSKSTSGGTAALGCLVKDYFPEPVTVSWNSGALTSGVHTFPAVLQSSGLYSLSSVVTVPSSSLGTQTYICNVNHKPSNTKVDKKVEPKSCDKTHTCPPCPAPELLGGPSVFLFPPKPKDTLMISRTPEVTCVVVDVSHEDPEVKFNWYVDGVEVHNAKTKPREEQYNSTYRVVSVLTFLHQDWLNGKEYKCKVSNKALPAPIEKTISKAKGQPREPQVYTLPPSRDELTKNQVSLTCLVKGFYPSDIAVEWESNGQPENNYKTTPPVLDSDGSFFLYSKLTVDKSRWQQGNVFNCSVMHEALHYHYTQKSLSLSP light: not shown
